These results are taken from PMC6689086.

The target of test [1] is Hsp82 C61-ATTO 550 (S. cerevisiae) (UniProt P02829).
Test [2] concerns the target Hsc82 C61-ATTO 550 (S. cerevisiae) (UniProt P15108).
For test [3] the target is unchanged. In words: FRET or BRET; subunit exchange after mixing of NTD- and MD-labeled dimers, no nucleotide; standard buffer (40 mM HEPES pH 7.5, 150 mM KCl, 5 mM MgCl2), 30 °C.
Test [4] has the same target. Briefly: FRET or BRET; FRET chase: tenfold excess of unlabeled Hsp90 added to the preformed FRET complex (400 nM), without nucleotide, 30 °C; apparent.
Test [5] shares this target. In words: FRET or BRET; FRET chase: tenfold excess of unlabeled Hsp90 added to the FRET complex preequilibrated 30 min with 2 mM ATP, 30 °C; apparent.
For test [6], the target named is Hsp82 protomer of the NM-FRET heterodimer (S. cerevisiae) (UniProt P02829). In words: FRET or BRET; subunit exchange after mixing of NTD- and MD-labeled dimers, no nucleotide; standard buffer (40 mM HEPES pH 7.5, 150 mM KCl, 5 mM MgCl2), 30 °C.
Test [7] addresses Hsp82 C61-ATTO 550 (S. cerevisiae) (UniProt P02829). The test is described as above.
For test [8] the target is unchanged. In words: FRET or BRET; FRET chase: tenfold excess of unlabeled Hsp90 added to the FRET complex preequilibrated 30 min with 2 mM ATP, 30 °C; apparent.

In the case of “Cpr6 (from UniProt P53691 1-371) (natural protein)”, in test [1], the ATPγS-induced closing rate kapp of the Hsp82 NM-FRET dimer (C61-ATTO 550 with C385-ATTO 488 protomers) with 4 µM Cpr6, percentage of kapp without co-chaperone worked out at 239%. Also, the ATPγS-induced closing rate kapp of the Hsc82 NM-FRET dimer (C61-ATTO 550 with C381-ATTO 488 protomers) with 4 µM Cpr6, percentage of kapp without co-chaperone in test [2] is 108%. In the case of “Hsc82 C381-ATTO 488 (from UniProt P15108 1-705) (natural protein)”, the subunit exchange rate (kse) in test [3] stood at 0.037 s⁻¹. In addition, the reopening of closed state rate, without nucleotide (t½) in test [4] is 32 s. Moreover, the reopening of closed state rate, with ATP (kapp as headed; apparent half-life by the legend) in test [5] came out at 0.7 min⁻¹.

As for “Hsc82 protomer of the NM-FRET heterodimer (from UniProt P15108 1-705) (natural protein)”, the subunit exchange rate (kse) in test [6] is 0.03 s⁻¹. Consider “Hsp82 C385-ATTO 488 (from UniProt P02829 1-709) (natural protein)”, for which the subunit exchange rate (kse) in test [7] turned out to be 0.034 s⁻¹. Besides, in test [8], the reopening of closed state rate, with ATP (kapp as headed; apparent half-life by the legend) turned out to be 0.7 min⁻¹. Molecule “p23/Sba1 (from UniProt P28707 1-216) (natural protein)” returned an ATPγS-induced closing rate kapp of the Hsc82 NM-FRET dimer (C61-ATTO 550 with C381-ATTO 488 protomers) with 4 µM Sba1, percentage of kapp without co-chaperone in test [2] of 78%.

B1: Sti1 (natural protein)
chain: MSLTADEYKQQGNAAFTAKDYDKAIELFTKAIEVSETPNHVLYSNRSACYTSLKKFSDALNDANECVKINPSWSKGYNRLGAAHLGLGDLDEAESNYKKALELDASNKAAKEGLDQVHRTQQARQAQPDLGLTQLFADPNLIENLKKNPKTSEMMKDPQLVAKLIGYKQNPQAIGQDLFTDPRLMTIMATLMGVDLNMDDINQSNSMPKEPETSKSTEQKKDAEPQSDSTTSKENSSKAPQKEESKESEPMEVDEDDSKIEADKEKAEGNKFYKARQFDEAIEHYNKAWELHKDITYLNNRAAAEYEKGEYETAISTLNDAVEQGREMRADYKVISKSFARIGNAYHKLGDLKKTIEYYQKSLTEHRTADILTKLRNAEKELKKAEAEAYVNPEKAEEARLEGKEYFTKSDWPNAVKAYTEMIKRAPEDARGYSNRAAALAKLMSFPEAIADCNKAIEKDPNFVRAYIRKATAQIAVKEYASALETLDAARTKDAEVNNGSSAREIDQLYYKASQQRFQPGTSNETPEETYQRAMKDPEVAAIMQDPVMQSILQQAQQNPAALQEHMKNPEVFKKIQTLIAAGIIRTGR
For the molecule B1, the ATPγS-induced closing rate kapp of the Hsp82 NM-FRET dimer (C61-ATTO 550 with C385-ATTO 488 protomers) with 4 µM Sti1, percentage of kapp without co-chaperone in test [1] is 40%. This molecule also yielded an ATPγS-induced closing rate kapp of the Hsc82 NM-FRET dimer (C61-ATTO 550 with C381-ATTO 488 protomers) with 4 µM Sti1, percentage of kapp without co-chaperone in test [2] of 19%.

B2: Aha1 (natural protein)
chain: MVVNNPNNWHWVDKNCIGWAKEYFKQKLVGVEAGSVKDKKYAKIKSVSSIEGDCEVNQRKGKVISLFDLKITVLIEGHVDSKDGSALPFEGSINVPEVAFDSEASSYQFDISIFKETSELSEAKPLIRSELLPKLRQIFQQFGKDLLATHGNDIQVPESQVKSNYTRGNQKSSFTEIKDSASKPKKNALPSSTSTSAPVSSTNKVPQNGSGNSTSIYLEPTFNVPSSELYETFLDKQRILAWTRSAQFFNSGPKLETKEKFELFGGNVISELVSCEKDKKLVFHWKLKDWSAPFNSTIEMTFHESQEFHETKLQVKWTGIPVGEEDRVRANFEEYYVRSIKLTFGFGAVL
Regarding B2, the ATPγS-induced closing rate kapp of the Hsp82 NM-FRET dimer (C61-ATTO 550 with C385-ATTO 488 protomers) with 4 µM Aha1, percentage of kapp without co-chaperone in test [1] was 868%. In test [2], this molecule yielded an ATPγS-induced closing rate kapp of the Hsc82 NM-FRET dimer (C61-ATTO 550 with C381-ATTO 488 protomers) with 4 µM Aha1, percentage of kapp without co-chaperone of 616%.
